Molecular target: SARS-CoV-2 Spike receptor-binding domain (SARS-CoV-2) (UniProt P0DTC2)
Assay: AUC

Q: How did the stoichiometry N turn out when “SARS-CoV-2 Spike receptor-binding domain (from UniProt P0DTC2) (domain or fragment)” was run?
A: The stoichiometry N was 2.
